Measured values: patent US20020188037A1, “Method and system for providing bioactive agent release coating” (priority 1999, published 2002)

Assay: Bioactive Agent Release Assay, dextran-TRITC under polymer topcoat on discs (Example 4)
Type: physicochemical
Settings: pEVA/pBMA topcoat coated at 48% relative humidity compared with 10% relative humidity; PBS, 37° C.; FIG. 2
Description: Two solutions were prepared in order to provide a coating composition in the form of a two part system. The first solution was an aqueous solution containing the bioactive agent, dextran-TRITC, at a concentration of 15 mg/ml. […] The poly(n-butyl methacrylate) and poly(ethylene-co-vinylacetate) were purified by extraction with organic solvents to remove impurities, e.g., monomer residues. The polymers of the second solution were dissolved in tetrahydrofuran at a concentration of 10 mg/ml.
Fifteen-millimeter diameter stainless steel discs with an overall thickness of two millimeters were fabricated with a nine-millimeter diameter flat pedestal. […] A surface treatment such as Parylene could be applied to the disc or the surface could be left untreated. The discs were weighed on a microbalance. The aqueous bioactive agent solution was applied to the pedestal surface of the discs with a pipette. The water evaporated from the discs and the discs were re-weighed on a microbalance to obtain the amount of the bioactive agent on the disc. The polymer coating solution containing poly(ethylene-co-vinylacetate) and poly(n-butyl methacrylate) was applied to the entire surface of the disc, covering the dextran. […]
Except as otherwise provided herein, each coated disc was placed in an amber vial with 4 mls of PBS. […] The concentration of bioactive agent in each PBS sample was determined using UV spectroscopy. […]

In the case of “tetramethylrhodamine isothiocyanate-Dextran [dextran-TRITC]”, the “release rate of the bioactive agent from the composite coating” value is reported as “faster rate”.
